Marks after values point to notes of the source that are not given here.
Legend:
Assay type in all cases: cell-based
[1] = system: ex vivo human skin sample; assay: Inducers of inflammation: inflammation marker gene expression in ex vivo skin samples (PCR); details: for CALML5 Up-Down Regulation (relative to control) / DEFB4 Up-Down Regulation (relative to control) / FLG Up-Down Regulation (relative to control) / IL-6 Up-Down Regulation (relative to control) / IL-8 Up-Down Regulation (relative to control) / KRT6A Up-Down Regulation (relative to control) / KRT10 Up-Down Regulation (relative to control) / S100A7 Up-Down Regulation (relative to control) / TNF-α Up-Down Regulation (relative to control): IL-17 or IL-22 alone, 96 hours
From the text: (§1) This Example describes the materials and methods used in preparing ex vivo skin samples for use according to the methods disclosed herein. Materials used in preparation of ex vivo skin samples for use in the disclosed screening methods included: Dulbecco's Modified Eagle Medium (DMEM) plus Glutamax, antibiotic and antimycotics, 1× phosphate-buffered saline (PBS), 150×15 mm sterile culture dishes, sterile gauze 4×4, disposable safety scalpels, 4 mm disposable biopsy punch, 6-well cell-culture inserts, disinfected tweezers, cotton-tipped applicators, 6-well culture plates, ruled, disinfected cutting mat (12×12), scraper handle, tissue freezing medium, biopsy cassettes, frozen-tissue freezing vessels, 10% formalin, shipping containers for fixed tissue, and biohazard/sharps containers. Media was prepared in advance of the arrival of ex vivo skin. The skin arrived with the dermis (fat) side down on sterile DMEM soaked gauze in a sterile culture dish. The culture dish was taped shut and in a biohazard zip-lock baggie on an ice pack in a secondary container.
(§2) On arrival, the skin was removed from the bag and soaked in 3×DMEM media (3× refers to concentration of antibiotic and antimycotics) and stored at 4° C. for 1 hour. After 1 hour, the skin was removed from the 3×DMEM and rinsed with sterile 1×PBS. The skin was placed in a clean culture dish containing gauze soaked with 1×DMEM. The sample was put in culture the same day as arrival. If necessary, however, the ex vivo skin samples can be stored at 4° C. overnight.
In preparation for culture, the following was performed: on a cutting mat, the skin was flipped over so that the epidermis was down and the subcutis (fat) was exposed. The fat was removed with a disposable scalpel by carefully grasping one corner of the skin with sterile serrated forceps and scraping the fat away with the blade held at a 45° angle to the skin. After the fat was removed, the surgical edges were cut off with a scalpel using a scraper as a straight edge guide and to hold the skin in place. Using the scraper as a guide, the skin was cut into 1.25 cm (2×2 squares on grid) wide strips using a ruler to measure the width. The strip was rinsed in a 100 mm culture dish containing 1×PBS. The strips were cut into 1.25 cm^2 squares and placed in a 100 mm culture dish on 1×DMEM-soaked gauze until they were put into culture 30 minutes later.
Culture plates were prepared that included 2.5 ml of media or media with treatment (e.g., a candidate modulator, an inflammation inducer, and/or an inhibitor of inflammation) in each well of a 6-well plate. One Millicell culture insert was added to each well and 100 μl of 1× DMEM was put in the center of each insert membrane. Squares of skin tissue were selected randomly and placed into each of the inserts (one piece of skin per insert), on top of the media on the membrane. The plates were stored at 33° C., with fresh media changes daily. As a control, baseline tissue measurements were collected from excess waste (cryogenics were used for snap-freezing). Baseline biopsy collection included two 4 mm punches for an MTT colorimetric assay (described below); one 4 mm punch was snap-frozen in OCT tissue compound for fresh histology; one 4 mm punch was fixed in 10% formalin and sent out for paraffin embedding. Expression measurements of inflammation marker genes were performed using PCR and primers appropriate to the known sequence of the gene(s) of interest.
Culturing and treatment of the ex vivo skin model comprised replicates of n=5. Before experimental treatment, compounds (e.g., a candidate modulator, an inflammation inducer, or a suppressor of inflammation) were solubilized in appropriate solvents (including PBS, media, alcohol, and DMSO). Appropriate dilutions were made for treatment and 15 ml of media was used per plate per day for treatment, with 2.5 ml of media per well under the cell culture insert. Media was pre-warmed and changed every day during the experiment.

[2] = system: ex vivo human skin sample; assay: Histological analysis of ex vivo skin samples; details: IL-22 at 20 ng/mL, biopsied six days after treatment, vs untreated sample at 24 hours
Method: The first sample was analyzed 24 hours after being collected (i.e., biopsied) from an untreated ex vivo skin sample, and the second sample was collected (i.e., biopsied) from an ex vivo skin sample six days after the skin sample was treated with IL-22 at 20 ng/mL. […] Also consistent was the effect of 10 μM clobetasol in inhibiting inflammation, as measured by a reduction in marker gene expression. In particular, S100A7 was induced about 34-fold relative to untreated skin samples, with clobetasol leading to about 26-fold increase in expression relative to the untreated control. For IL-8, induction was about 16-fold and clobetasol reduced that to about 3-fold. For IL-6, induction was about 6-fold and clobetasol inhibited that value to about 0.3-fold relative to control values. For DEFB4, induction was about 800-fold and clobetasol reduced that increase to about 200-fold relative to controls.

[3] = system: ex vivo human skin sample; assay: Inducers of inflammation: inflammation marker secreted into the media by ex vivo skin samples (ELISA); details: 20 ng/ml IL-22 only, day 4; untreated about 5,800 pg/ml
From the text: as §1, §2
In preparation for culture, the following was performed: on a cutting mat, the skin was flipped over so that the epidermis was down and the subcutis (fat) was exposed. The fat was removed with a disposable scalpel by carefully grasping one corner of the skin with sterile serrated forceps and scraping the fat away with the blade held at a 45° angle to the skin. After the fat was removed, the surgical edges were cut off with a scalpel using a scraper as a straight edge guide and to hold the skin in place. […]

B1: IL-22: pro-inflammatory cytokine used as inducer of inflammation; also inducer of cell proliferation (protein, UniProt Q9GZX6 34-179, looked up)
Interleukin-22: APISSHCRLDKSNFQQPYITNRTFMLAKEASLADNNTDVRLIGEKLFHGVSMSERCYLMKQVLNFTLEEVLFPQSDRFQPYMQEVVPFLARLSNRLSTCHIEGDDLHIQRNVQKLKDTVKKLGESGEIKAIGELDLLFMSLRNACI
[1]
  induction of inflammation in ex vivo skin samples, in words: shown to induce inflammation in ex vivo skin samples
[1]; 2 ng/ml IL-22
  DEFB4 expression relative to an untreated ex vivo skin sample: 0.00
  KRT10 fold-expression level relative to an untreated ex vivo skin sample: about 0.00 fold
[1]; 20 ng/ml IL-22
  DEFB4 expression relative to an untreated ex vivo skin sample: about 3.00
  KRT10 fold-expression level relative to an untreated ex vivo skin sample: about −3.00 fold
[1]; 200 ng/ml IL-22
  DEFB4 expression relative to an untreated ex vivo skin sample: about 20.00
  KRT10 fold-expression level relative to an untreated ex vivo skin sample: about −18.00 fold
[1]; 2 ng/ml
  CALML5 Up-Down Regulation (relative to control): 1.17*
  DEFB4 Up-Down Regulation (relative to control): −1.03
  FLG Up-Down Regulation (relative to control): 1.28
  IL-6 Up-Down Regulation (relative to control): 1.35
  IL-8 Up-Down Regulation (relative to control): 1.71*
  KRT6A Up-Down Regulation (relative to control): −1.16
  KRT10 Up-Down Regulation (relative to control): 1.40
  S100A7 Up-Down Regulation (relative to control): 1.02
  TNF-α Up-Down Regulation (relative to control): 1.95*
[1]; 20 ng/ml
  CALML5 Up-Down Regulation (relative to control): −2.29*
  DEFB4 Up-Down Regulation (relative to control): 2.69*
  FLG Up-Down Regulation (relative to control): −10.55*
  IL-6 Up-Down Regulation (relative to control): 1.30
  IL-8 Up-Down Regulation (relative to control): 1.43
  KRT6A Up-Down Regulation (relative to control): 1.32
  KRT10 Up-Down Regulation (relative to control): −2.69*
  S100A7 Up-Down Regulation (relative to control): 2.04*
  TNF-α Up-Down Regulation (relative to control): 1.56*
[1]; 200 ng/ml
  CALML5 Up-Down Regulation (relative to control): −4.61*
  DEFB4 Up-Down Regulation (relative to control): 20.23*
  FLG Up-Down Regulation (relative to control): −13.37*
  IL-6 Up-Down Regulation (relative to control): 1.31
  IL-8 Up-Down Regulation (relative to control): 1.72*
  KRT6A Up-Down Regulation (relative to control): 1.08
  KRT10 Up-Down Regulation (relative to control): −17.54*
  TNF-α Up-Down Regulation (relative to control): 1.33*
[2]
  histology: skin cell proliferation (basal layer): clearly exhibits a proliferative basal layer
[3]
  IL-8 secreted into the media: about 5,500 pg/ml

From patent US9804152B1, “Human ex vivo skin model and its use in methods of identifying modulators of skin inflammation” (The Procter & Gamble Company, priority 2012, dated 2017)
